Measurements published in US20240122985A1, “ANTIBODIES, COMBINATIONS COMPRISING ANTIBODIES, BIOMARKERS, USES & METHODS” (KYMAB LIMITED, priority 2016, published 2024).

What was measured:
[1] = test system: Rhesus Macaque Graft versus Host Disease (GvHD) model; settings: Example 9, post-HSCT prophylaxis, Rhesus macaque (FIG. 7)
From the text: The effectiveness of antibody 2D10 IgG4PE as a monotherapy prophylactic for the prevention of GvHD was examined in a Rhesus Macaque model of haploidentical hematopoietic stem cell transplantation (HSCT).
All transplants were between half-sibling pairs that are mismatched at one MHC haplotype (“haploidentical-HCTs”). Recipient animals had irradiation based pre-myeloablative pre-transplant conditioning using a linear accelerator. Dose rate: 7cGy/min. Dose 1020 cGy given in 4 fractions. The leukapheresis donor animal underwent GCSF mobilisation and underwent leukapheresis using a Spectra Optia apheresis machine.
2D10 IgG4PE was dosed at 10 mg/kg i.v. according to a planned dosing schedule to take place on Day −2, Day+5, Day+12, Day+19, Day+26, Day+33, Day+40, Day+47 post-transplant.
Samples were taken during the course of the study to monitor donor chimerism (Table 4) and white blood cell counts. The primary end point was based on survival, with a survival to 15 days deemed to be a sign of successful prophylactic therapy (and compared to the documented survival of 6-8 days with no prophylaxis; Miller et al. 2010, supra). Though full pathology and histology with GvHD grading scores, markers of T-cell proliferation and activation (such as Ki-67 and granzyme B) and gene array analysis are planned, they were not available for inclusion at the time of drafting.
Scoring of clinical symptoms was based on observational assessments and clinical chemistry, classified according to the criteria set out in Table 5.
A further rhesus macaque GvHD study was conducted to determine the effect of combined post-HSCT prophylaxis with 2D10 IgG4PE and rapamycin. The study was performed as described in Example 7, with dosing as follows: 2D10 IgG4PE was administered i.v. at 10 mg/kg on Day −2, Day +5, Day+12, Day+19, Day+26, Day+33, Day+40, Day+47 and Day+56 post-transplant. Rapamycin was administered at a loading dose of 0.1 mg/kg i.m. on Day −14, followed by daily i.m. maintenance doses of 0.025 mg/kg until the scheduled termination of the study at Day+100. Rapamycin dosing was adjusted to maintain serum trough levels within the range 5-15 ng/mL.
This was a cohort study in NHP designed to determine the clinical, immunologic and molecular outcomes of OX40L blockade during allogeneic HCT. Two cohorts of transplant recipients were studied: (1) Allogeneic transplants using the OX40L-blocking human IgG4-PE antibody 1D05 (described as ‘KY1005’ in this Example 11) as monotherapy for GVHD prophylaxis (abbreviated as ‘KY1005’; n=4). KY1005 was given at a dose of 10 mg/kg starting on Days −2 and then once weekly until discontinuation on Days 54 (FIG. 8E). […] (2) Allogeneic transplants using KY1005 in combination with Sirolimus (Rapamycin) ([…]) for GVHD prophylaxis (abbreviated as ‘KY1005/Siro’; n=5). KY1005 was given at a dose of 10 mg/kg starting on Days −2 and then once weekly until discontinuation on Days 54 (FIG. 8P). […] These two OX40L-blockade groups were compared to the following cohorts, aspects of which have been described previously (Furlan et al., 2015; Furlan et al., 2016; Miller et al., 2010) (1) Autologous transplants (abbreviated as ‘Auto’, n=6 for clinical and flow cytometric data and n=4 for transcriptomic analysis) (2); Allogeneic transplants with no GVHD prophylaxis (abbreviated as‘No Rx’, n=11 for clinical and flow cytometric data and n=4 for transcriptomic analysis). (3) Allogeneic transplants using Sirolimus monotherapy for GVHD prophylaxis (LC laboratories, abbreviated as ‘Siro’, n=11 for flow cytometric analysis, n=4 for transcriptomic analysis).

[2] = target: T1, CHO-S expressed hOX40L (Homo sapiens, UniProt P23510); test: Binding to CHO-S expressed hOX40L and receptor neutralisation (FACS); format: cell-based
T1 construct: CHO-S cells (optionally transfected with full length human OX40L); expressed in transfected cells
T1 sequence (P23510 1-183): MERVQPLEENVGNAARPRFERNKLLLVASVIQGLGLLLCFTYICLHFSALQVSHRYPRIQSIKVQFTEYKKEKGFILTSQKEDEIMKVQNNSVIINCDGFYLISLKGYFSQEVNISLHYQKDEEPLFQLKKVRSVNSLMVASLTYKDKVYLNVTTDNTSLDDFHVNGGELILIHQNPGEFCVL
Protocol: CHO-S cells expressing hOX40L or untransfected CHO-S cells, diluted in FACS buffer (PBS+1% w/v BSA+0.1% w/v NaN3) were distributed to a 96 well V-bottom plate (Greiner) at a density of 1×10^5 cells per well. Cells were washed with 150 μL of PBS and centrifuged at 300×g for 3 min. Supernatant was aspirated and 150 μL of PBS added. This wash step was repeated.
25 μL of hybridoma supernatant or purified antibody from hybridoma supernatant diluted in FACS buffer was added to the washed cells and incubated for 10-15 minutes. Reference Antibody or mouse IgG1 control antibody (Sigma) were diluted in FACS buffer to 20 μg/mL and 25 μL added to cells. 25 μL of human OX40R Fc (in-house) diluted to 1000 ng/mL in FACS buffer were then added to wells. Cells were incubated at 4° C. for 30 minutes.
To detect antibody and receptor binding, 50 μL of Goat anti-human IgG-PE (Jackson ImmunoResearch) and APC anti-mouse IgG (Jackson ImmunoResearch) diluted 1 in 500 in FACS buffer was added to the cells. Cells were incubated 30 minutes at 4° C. in the dark.
To fix cells 100 μL 2% v/v paraformaldehyde was added and cells incubated for 30 minutes at 4° C., cells were pelleted by centrifugation 300×g and the plates and resuspended in 50 μL of FACS buffer. PE and APC signal intensity (geomean) was measured by flow cytometry using a BD FACS Array instrument.
% of control binding was calculated using geomean fluorescence as described in equation 1 where total binding was defined as reference antibody at 10 μg/mL and non-specific binding as mouse IgG1 antibody at 10 μg/mL. % receptor binding was calculated using Equation 3.

[3] = target: T2, recombinant hOX40L (Homo sapiens, UniProt P23510); test: Surface plasmon resonance, apparent affinity to human OX40L; format: binding; settings: SPR, 25° C.; CNROR = Cannot resolve off-rate
T2 construct: cDNA encoding the extracellular domain of human OX40L was cloned into a pREP4 expression plasmid; isoleucine zipper (N); made in house; host or cells: FreeStyle CHO-S (transient)
Protocol: (§1) SPR analysis was carried out using the ProteOn™ XPR36 Array System (BioRad). Anti-mouse IgG (GE Healthcare BR-1008-38) was immobilised on a GLM biosensor surface using amine coupling, the surface was then blocked using 1 M ethanolamine. Test antibodies were captured on this surface and recombinant hOX40L (human and rhesus) were used at a single concentration of 256 nM, binding sensorgrams were double referenced using a buffer injection (i.e. 0 nM) to remove baseline drift and injection artefacts. Apparent affinities for the OX40L-antibody interaction were determined using the 1:1 model inherent to the ProteOn XPR36 analysis software. The assay was run using HBS-EP (Teknova) as running buffer and carried out at 25° C.

[4] = target: Rhesus monkey OX40L; test: Surface plasmon resonance, apparent affinity to rhesus OX40L; format: binding, Rhesus (Macaca mulatta); settings: SPR, 25° C.; CNROR = Cannot resolve off-rate
Protocol: as §1

Chain of Rhesus monkey OX40L (as listed by the source): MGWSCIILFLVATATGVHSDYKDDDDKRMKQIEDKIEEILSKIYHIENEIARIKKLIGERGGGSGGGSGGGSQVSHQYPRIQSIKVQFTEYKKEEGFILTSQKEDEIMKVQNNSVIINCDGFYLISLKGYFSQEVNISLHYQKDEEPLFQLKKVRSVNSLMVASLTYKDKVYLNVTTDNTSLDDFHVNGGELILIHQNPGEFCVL
T2 sequence (P23510 with tags, fused parts or gaps): as the sequence (as listed by the source) above, with Q77R, E95K counted along it

With `CO[C@H]1C[C@@H]2CC[C@@H](C)[C@@](O)(O2)C(=O)C(=O)N2CCCC[C@H]2C(=O)O[C@H]([C@H](C)C[C@@H]2CC[C@@H](O)[C@H](OC)C2)CC(=O)[C@H](C)/C=C(\C)[C@@H](O)[C@@H](OC)C(=O)[C@H](C)C[C@H](C)/C=C/C=C/C=C/1C` [rapamycin, rapamycin (sirolimus), reference compound] as the molecule, how does the “median survival time, MST” value [1] read?
Its value is 17 days.

B1: 10A07 (hybridoma): murine/human chimeric anti-OX40L antibody purified from hybridoma supernatant (antibody, V domains shown)
VH: EVQLVESGGVLVQPGGSLRLSCAASGFTFSSYIMTWVRQAPGKGLEWVSGISGSGGGTYYADSMKGRFTISRDNSKNTLYLQMNSLRVEDTAVYYCAKDRLGPITLVRGGYYYGMDVWGQGTTVTVSS
VL: DIQMTQSPSSLSASVGDRVTITCRASQSISDYLNWYQQKPGKAPKFLIYAASSLQSGVPSRFSGSGSGTDFTLTVSSLQPEDFATYYCQQSYSTPRTFGQGTRVEIK
For B1, which “FACS Binding” value [2] is on record?
Its value is “YES”.

What about the “Apparent Affinity hOX40L (nM)” value [3] of the same molecule?
The value was “CNROR”.

And the “Apparent Affinity RhsOX40L (nM)” value [4]?
The value was “CNROR”.

B2: 10A07 (human): fully human anti-human OX40L monoclonal antibody; VH Seq ID No:2, VL Seq ID No:16 (antibody, V domains shown)
VH: B1 VH
VL: B1 VL
modifications: 10A07 - VH Amino Acid Sequence; 10A07 - VL Amino Acid Sequence
Which “Apparent Affinity hOX40L (nM)” value [3] does the source give for B2 here?
The value was “CNROR”.

What about the “Apparent Affinity RhsOX40L (nM)” value [4] of the same molecule?
The value was “CNROR”.

B3: 2D10 (hybridoma): murine/human chimeric anti-OX40L antibody purified from hybridoma supernatant (antibody, V domains shown)
VH: EVQLVESGGGLVQPGGSLRLSCAASGFTFSNYAMNWVRQAPGKGLEWVSTISGSGGATRYADSVKGRFTISRDNSRNTVYLQMNSLRVEDTAVFYCTKDRLIMATVRGPYYYGMDVWGQGTTVTVSS
VL: DIQMTQSPSSLSASVGDRVTITCRASQSISSYLNWYQQKPGKAPNLLIYAASSLQSGVPSRFSGSGSETDFTLTISSLQPEDFATYYCQQSHSVSFTFGPGTKVDIK
B3 was tested. Which “FACS Binding” value [2] did it give?
The value was “YES”.

And the “Apparent Affinity hOX40L (nM)” value [3]?
The value was “CNROR”.

And the “Apparent Affinity RhsOX40L (nM)” value [4]?
The value was “CNROR”.

B4: 9H04 (hybridoma): anti-OX40L antibody from hybridoma; VH Seq ID No:66, VL Seq ID No:80 (antibody, V domains shown)
VH: QVQLVESGGGLVKPGGSLRLSCAASRFTLSDYYMTWIRQAPGKGLEWVSYISSSGNTIYYADSVKGRFTISRDNAKNSLYLQMNSLRAEDTAVYYCARDLSGSYWDYYYGMDVWGQGTTVTVSS
VL: AIQLTQSPSSLSTSVGDRVTIACRASQGINNALAWYQQKPGKAPKLLIYDASSLESGVPSRFSGSGSGTDFTLTISSLQPEDFATYYCQQFNSYPRTFGQGTKVEIK
modifications: 09H04 - VH Amino Acid Sequence; 09H04 - VL Amino Acid Sequence
Which “FACS Binding” value [2] does the source give for B4 here?
Its value is “YES”.
